Assay results as given in US20190085055A1.
Where “and” joins values, the source holds several entries; their conditions need not be identical. Identical values can stand only once.

Tests used:
[1] = target: tissue factor extracellular domains (human) (UniProt P13726); assay: SPR, TF immobilised, purified Fab as analyte, 1:1 model
[2] = target: D3H44 light chain F118W_V133S; assay: LCCA (SPR), competitor L1 WT
[3] = target: D3H44 light chain, wild type; assay: LCCA (SPR), competitor L2 F118W_V133S
Sequence of D3H44 light chain, wild type (light, as listed by the source): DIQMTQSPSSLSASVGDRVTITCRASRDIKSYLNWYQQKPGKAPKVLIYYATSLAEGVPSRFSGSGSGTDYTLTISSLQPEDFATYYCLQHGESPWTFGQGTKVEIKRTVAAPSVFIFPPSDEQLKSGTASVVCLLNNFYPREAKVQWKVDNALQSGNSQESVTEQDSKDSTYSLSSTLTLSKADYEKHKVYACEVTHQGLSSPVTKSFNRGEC

[4] = target: D3H44 light chain F118W_V133S; assay: LCCA (SPR), competitor L1 F116A
[5] = target: D3H44 light chain F116A; assay: LCCA (SPR), competitor L2 F118W_V133S
[6] = target: D3H44 light chain F116A; assay: LCCA (SPR), competitor L1 WT
[7] = target: D3H44 light chain, wild type; assay: LCCA (SPR), competitor L2 F116A
[8] = target: D3H44 light chain F118W_V133S; assay: LCCA (SPR), competitor L1 F116S
[9] = target: D3H44 light chain F116S; assay: LCCA (SPR), competitor L2 F118W_V133S
[10] = target: D3H44 light chain F98L; assay: LCCA (SPR), competitor L1 WT
[11] = target: D3H44 light chain, wild type; assay: LCCA (SPR), competitor L2 F98L
[12] = target: D3H44 light chain S176L; assay: LCCA (SPR), competitor L2 WT
Sequence of D3H44 light chain S176L (light, as listed by the source): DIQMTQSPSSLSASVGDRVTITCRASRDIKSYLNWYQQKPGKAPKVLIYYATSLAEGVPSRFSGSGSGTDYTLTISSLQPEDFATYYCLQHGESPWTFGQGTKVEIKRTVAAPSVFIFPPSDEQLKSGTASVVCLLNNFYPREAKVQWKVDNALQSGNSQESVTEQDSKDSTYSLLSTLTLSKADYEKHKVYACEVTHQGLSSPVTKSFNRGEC

[13] = target: D3H44 light chain, wild type; assay: LCCA (SPR), competitor L1 S176L
[14] = target: D3H44 light chain P44W; assay: LCCA (SPR), competitor L1 Y87G
[15] = target: D3H44 light chain Y87G; assay: LCCA (SPR), competitor L2 P44W
Sequence of D3H44 light chain Y87G (light, as listed by the source limits assumed): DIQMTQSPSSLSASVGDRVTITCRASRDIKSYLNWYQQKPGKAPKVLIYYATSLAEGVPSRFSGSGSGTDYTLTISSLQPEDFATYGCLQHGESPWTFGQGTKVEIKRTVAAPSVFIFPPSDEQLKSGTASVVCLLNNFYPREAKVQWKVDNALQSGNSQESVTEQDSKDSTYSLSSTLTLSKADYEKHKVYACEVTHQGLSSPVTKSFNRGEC

[16] = target: D3H44 light chain Q38D; assay: LCCA (SPR), competitor L1 Q38R
Sequence of D3H44 light chain Q38D (light, as listed by the source limits assumed): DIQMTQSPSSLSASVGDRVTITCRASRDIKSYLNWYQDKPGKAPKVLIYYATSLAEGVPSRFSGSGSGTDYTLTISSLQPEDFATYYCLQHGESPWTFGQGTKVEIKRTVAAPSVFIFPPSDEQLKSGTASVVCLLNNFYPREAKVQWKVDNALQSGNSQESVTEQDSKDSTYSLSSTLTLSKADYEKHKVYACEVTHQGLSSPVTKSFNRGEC

[17] = target: D3H44 light chain Q38R; assay: LCCA (SPR), competitor L2 Q38D
Sequence of D3H44 light chain Q38R (light, as listed by the source): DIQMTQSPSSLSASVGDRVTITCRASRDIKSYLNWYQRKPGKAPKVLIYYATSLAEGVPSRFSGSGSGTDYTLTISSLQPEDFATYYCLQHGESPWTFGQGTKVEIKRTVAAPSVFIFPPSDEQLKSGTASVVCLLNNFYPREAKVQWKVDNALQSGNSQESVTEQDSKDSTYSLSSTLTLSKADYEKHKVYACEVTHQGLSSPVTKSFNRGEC

[18] = target: D3H44 light chain Q38N_T85K; assay: LCCA (SPR), competitor L1 Q38N_T85E
Sequence of D3H44 light chain Q38N_T85K (light, as listed by the source limits assumed): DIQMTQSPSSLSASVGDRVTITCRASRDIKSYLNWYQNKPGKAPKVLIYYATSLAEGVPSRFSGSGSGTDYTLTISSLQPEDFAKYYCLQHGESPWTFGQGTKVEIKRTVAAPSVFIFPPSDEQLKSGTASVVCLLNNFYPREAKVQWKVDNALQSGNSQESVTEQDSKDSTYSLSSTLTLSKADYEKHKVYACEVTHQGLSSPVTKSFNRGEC

[19] = target: D3H44 light chain Q38N_T85E; assay: LCCA (SPR), competitor L2 Q38N_T85K
Sequence of D3H44 light chain Q38N_T85E (light, as listed by the source limits assumed): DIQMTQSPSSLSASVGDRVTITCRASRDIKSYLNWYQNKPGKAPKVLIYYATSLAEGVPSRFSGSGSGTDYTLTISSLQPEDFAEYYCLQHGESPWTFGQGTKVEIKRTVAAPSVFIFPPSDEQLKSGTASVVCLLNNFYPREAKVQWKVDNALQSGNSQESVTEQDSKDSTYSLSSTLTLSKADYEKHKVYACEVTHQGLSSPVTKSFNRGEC

[20] = target: D3H44 light chain F98A; assay: LCCA (SPR), competitor L1 Q38R
[21] = target: D3H44 light chain P44W; assay: LCCA (SPR), competitor L1 F98L
[22] = target: D3H44 light chain F98A; assay: LCCA (SPR), competitor L1 P44W
[23] = target: D3H44 light chain F98W; assay: LCCA (SPR), competitor L1 P44W
[24] = target: D3H44 light chain P44W; assay: LCCA (SPR), competitor L2 F98A
[25] = target: D3H44 light chain P44W; assay: LCCA (SPR), competitor L2 F98W
[26] = target: D3H44 light chain F98L; assay: LCCA (SPR), competitor L2 P44W
[27] = target: D3H44 light chain F98L; assay: LCCA (SPR), competitor L1 P44W
[28] = target: D3H44 light chain P44W; assay: LCCA (SPR), competitor L2 F98L
[29] = target: D3H44 light chain L89R_F98W; assay: LCCA (SPR), competitor L2 F98Y
Sequence of D3H44 light chain L89R_F98W (light, as listed by the source): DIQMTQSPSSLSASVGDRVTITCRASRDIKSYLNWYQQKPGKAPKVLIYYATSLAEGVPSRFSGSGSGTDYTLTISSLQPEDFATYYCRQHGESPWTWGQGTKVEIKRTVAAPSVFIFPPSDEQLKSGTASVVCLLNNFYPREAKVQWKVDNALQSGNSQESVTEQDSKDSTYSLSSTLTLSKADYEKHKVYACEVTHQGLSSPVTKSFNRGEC

[30] = target: D3H44 light chain F98Y; assay: LCCA (SPR), competitor L1 L89R_F98W
Sequence of D3H44 light chain F98Y (light, as listed by the source limits assumed): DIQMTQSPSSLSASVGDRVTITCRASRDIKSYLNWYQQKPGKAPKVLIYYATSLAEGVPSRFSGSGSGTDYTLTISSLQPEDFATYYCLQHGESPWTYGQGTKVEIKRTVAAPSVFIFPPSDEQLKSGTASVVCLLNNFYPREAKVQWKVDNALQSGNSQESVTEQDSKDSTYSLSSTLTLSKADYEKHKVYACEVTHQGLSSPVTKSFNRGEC

[31] = target: D3H44 light chain F98W; assay: LCCA (SPR), competitor L1 F98L
[32] = target: D3H44 light chain F98L; assay: LCCA (SPR), competitor L2 F98W

Sequence of tissue factor extracellular domains (human) (P13726 33-251): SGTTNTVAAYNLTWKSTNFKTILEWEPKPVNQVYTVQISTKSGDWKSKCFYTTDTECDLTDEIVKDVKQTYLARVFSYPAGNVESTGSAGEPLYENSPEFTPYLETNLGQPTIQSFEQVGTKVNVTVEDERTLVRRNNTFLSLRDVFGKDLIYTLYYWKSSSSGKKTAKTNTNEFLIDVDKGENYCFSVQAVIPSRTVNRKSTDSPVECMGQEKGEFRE

D3H44 Fab Design 11 H1-L1 (H1 S188L_V190Y, L1 V133S)
Kd [1]: 0.043 nM

D3H44 Fab Design 11 H2-L2 (H2 F174V_P175S_S188G, L2 S176L)
Kd [1]: 0.04 nM

D3H44 Fab Design 13 H1-L1 (H1 L143A_D144G_Q179R, L1 Q124E_V133W_Q160E_T180E)
Kd [1]: 0.087 nM

D3H44 Fab Design 13 H2-L2 (H2 K145T_Q179D_S188F, L2 V133A_Q160K_T178R)
Kd [1]: 0.086 nM

D3H44 Fab Design 15 H1-L1 (H1 D146G_Q179R, L1 Q124E_Q160E_T178D)
Kd [1]: 0.082 nM

D3H44 Fab Design 15 H2-L2 (H2 K145T_Q179D_S188L, L2 Q160K_T178R)
Kd [1]: 0.071 nM

D3H44 Fab Design 30 H1-L1 (H1 D148G_Q175K, L1 Q124E_Q160E_T180E)
Kd [1]: 0.024 nM

D3H44 Fab Design 30 H2-L2 (H2 L145E_K147T, L2 Q160K_T178R)
Kd [1]: 0.06 nM

D3H44 Fab Design 31 H1-L1 (H1 Q39D_A141G_V185A, L1 Q38R_L135W)
Kd [1]: 0.025 nM

D3H44 heavy chain (Fab format) A139I
H2 L2 of H2 L2:H2 L1 (screen) [2]: 51.9
H2 L1 of H2 L2:H2 L1 (screen) [3]: 28.9

D3H44 heavy chain (Fab format) A139I_V190S
H1 L2 of H1 L1:H1 L2 (screen) [2]: 28
H1 L2 of H1 L1:H1 L2 (verification) [2]: 8.2
H1 L2 of H1 L1:H1 L2 (screen) [4]: 25.1
H1 L2 of H1 L1:H1 L2 (verification) [4]: 0.759
H1 L1 of H1 L1:H1 L2 (screen) [5]: 64.7
H1 L1 of H1 L1:H1 L2 (verification) [5]: 59.8
H1 L1 of H1 L1:H1 L2 (screen) [3]: 67.1
H1 L1 of H1 L1:H1 L2 (verification) [3]: 77

D3H44 heavy chain (Fab format) A139V
H2 L2 of H2 L2:H2 L1 (screen) [4]: 63.9
H2 L2 of H2 L2:H2 L1 (verification) [4]: 24.5 and 56.1
H2 L1 of H2 L2:H2 L1 (screen) [5]: 35.7
H2 L1 of H2 L2:H2 L1 (verification) [5]: 56.1 and 24.5

D3H44 heavy chain (Fab format) A139V_V190S
H1 L2 of H1 L1:H1 L2 (screen) [2]: 35.2
H1 L2 of H1 L1:H1 L2 (verification) [2]: 8.66
H1 L2 of H1 L1:H1 L2 (screen) [4]: 35.1
H1 L2 of H1 L1:H1 L2 (verification) [4]: 10.1
H1 L1 of H1 L1:H1 L2 (screen) [5]: 68.7
H1 L1 of H1 L1:H1 L2 (verification) [5]: 42.1
H1 L1 of H1 L1:H1 L2 (screen) [3]: 58.8
H1 L1 of H1 L1:H1 L2 (verification) [3]: 52.2

D3H44 heavy chain (Fab format) A139W_V190A
H2 L2 of H2 L2:H2 L1 (screen) [6]: 74.5
H2 L2 of H2 L2:H2 L1 (verification) [6]: 51.4
H2 L1 of H2 L2:H2 L1 (screen) [7]: 17.8
H2 L1 of H2 L2:H2 L1 (verification) [7]: 19.7

D3H44 heavy chain (Fab format) A139W_V190S
H2 L2 of H2 L2:H2 L1 (screen) [6]: 66.9
H2 L2 of H2 L2:H2 L1 (verification) [6]: 43
H1 L2 of H1 L1:H1 L2 (screen) [4]: 33.4
H1 L2 of H1 L1:H1 L2 (verification) [4]: 0.722
H1 L2 of H1 L1:H1 L2 (screen) [8]: 15.7
H1 L2 of H1 L1:H1 L2 (verification) [8]: 20.2
H2 L1 of H2 L2:H2 L1 (screen) [7]: 21.1
H2 L1 of H2 L2:H2 L1 (verification) [7]: 22.3
H1 L1 of H1 L1:H1 L2 (screen) [5]: 68.7
H1 L1 of H1 L1:H1 L2 (verification) [5]: 83.8
H1 L1 of H1 L1:H1 L2 (screen) [9]: 84.8
H1 L1 of H1 L1:H1 L2 (verification) [9]: 55.4

D3H44 heavy chain (Fab format) F100W
H2 L2 of H2 L2:H2 L1 (screen) [10]: 56.8
H2 L2 of H2 L2:H2 L1 (verification) [10]: 38.9
H2 L1 of H2 L2:H2 L1 (screen) [11]: 29.7
H2 L1 of H2 L2:H2 L1 (verification) [11]: 44.9

D3H44 heavy chain (Fab format) F174V_S188L
H2 L1 of H2 L2:H2 L1 (screen) [12]: 5.94
H2 L2 of H2 L2:H2 L1 (screen) [13]: 103

D3H44 heavy chain (Fab format) L45W
H1 L2 of H1 L1:H1 L2 (screen) [14]: 23.9
H1 L2 of H1 L1:H1 L2 (verification) [14]: 31
H1 L1 of H1 L1:H1 L2 (screen) [15]: 54.5
H1 L1 of H1 L1:H1 L2 (verification) [15]: 58.1

D3H44 heavy chain (Fab format) Q39D
H1 L2 of H1 L1:H1 L2 (screen) [16]: 34.5
H1 L2 of H1 L1:H1 L2 (verification) [16]: 31.1
H1 L1 of H1 L1:H1 L2 (screen) [17]: 66.9
H1 L1 of H1 L1:H1 L2 (verification) [17]: 61.8
H2 L2 of H2 L2:H2 L1 (screen) [18]: 71.7
H2 L1 of H2 L2:H2 L1 (screen) [19]: 27.4

D3H44 heavy chain (Fab format) Q39E
H1 L2 of H1 L1:H1 L2 (screen) [20]: 29.7
H1 L2 of H1 L1:H1 L2 (verification) [20]: 7.2

D3H44 heavy chain (Fab format) Q39K
H1 L2 of H1 L1:H1 L2 (screen) [18]: 30.1
H1 L2 of H1 L1:H1 L2 (verification) [18]: 21.7
H1 L1 of H1 L1:H1 L2 (screen) [19]: 54.8
H1 L1 of H1 L1:H1 L2 (verification) [19]: 66.5

D3H44 heavy chain (Fab format) S188L
H2 L1 of H2 L2:H2 L1 (screen) [12]: 9.32
H2 L2 of H2 L2:H2 L1 (screen) [13]: 92.5

D3H44 heavy chain (Fab format) V37A_W103H
H2 L2 of H2 L2:H2 L1 (screen) [21]: 66.5
H1 L2 of H1 L1:H1 L2 (screen) [22]: 8.79
H1 L2 of H1 L1:H1 L2 (verification) [22]: 12.3
H1 L2 of H1 L1:H1 L2 (screen) [23]: 19.6
H2 L2 of H2 L2:H2 L1 (screen) [14]: 53.1
H1 L1 of H1 L1:H1 L2 (screen) [24]: 67.5
H1 L1 of H1 L1:H1 L2 (verification) [24]: 47.1
H1 L1 of H1 L1:H1 L2 (screen) [25]: 53.6
H2 L1 of H2 L2:H2 L1 (screen) [26]: 6.38
H2 L1 of H2 L2:H2 L1 (screen) [15]: 18.9

D3H44 heavy chain (Fab format) V37A_W103V
H1 L2 of H1 L1:H1 L2 (screen) [22]: 25.3
H2 L2 of H2 L2:H2 L1 (screen) [27]: 54.8
H2 L2 of H2 L2:H2 L1 (verification) [27]: 52
H2 L2 of H2 L2:H2 L1 (screen) [23]: 53
H2 L2 of H2 L2:H2 L1 (verification) [23]: 23.3
H1 L1 of H1 L1:H1 L2 (screen) [24]: 58.9
H2 L1 of H2 L2:H2 L1 (screen) [25]: 18.6
H2 L1 of H2 L2:H2 L1 (verification) [25]: 44.7
H2 L1 of H2 L2:H2 L1 (screen) [28]: 22.8
H2 L1 of H2 L2:H2 L1 (verification) [28]: 23

D3H44 heavy chain (Fab format) V37I_F100W
H2 L2 of H2 L2:H2 L1 (screen) [27]: 67.3
H2 L2 of H2 L2:H2 L1 (verification) [27]: 30.5
H2 L1 of H2 L2:H2 L1 (screen) [28]: 26.9
H2 L1 of H2 L2:H2 L1 (verification) [28]: 47.9

D3H44 heavy chain (Fab format) V37S_A97K
H2 L1 of H2 L2:H2 L1 (screen) [29]: 0.5
H2 L1 of H2 L2:H2 L1 (verification) [29]: 11.7
H2 L2 of H2 L2:H2 L1 (screen) [30]: 71.6
H2 L2 of H2 L2:H2 L1 (verification) [30]: 65.6

D3H44 heavy chain (Fab format) V37W_W103F
H1 L2 of H1 L1:H1 L2 (screen) [31]: 14.8
H1 L2 of H1 L1:H1 L2 (verification) [31]: 27.7
H1 L1 of H1 L1:H1 L2 (screen) [32]: 64.2
H1 L1 of H1 L1:H1 L2 (verification) [32]: 38.2

D3H44 heavy chain (Fab format) V37W_W103H
H1 L2 of H1 L1:H1 L2 (screen) [31]: 30
H1 L2 of H1 L1:H1 L2 (verification) [31]: 30.5
H1 L2 of H1 L1:H1 L2 (screen) [21]: 29.2
H1 L2 of H1 L1:H1 L2 (verification) [21]: 21.2
H1 L1 of H1 L1:H1 L2 (screen) [32]: 57.2
H1 L1 of H1 L1:H1 L2 (verification) [32]: 62.3
H1 L1 of H1 L1:H1 L2 (screen) [26]: 48.3
H1 L1 of H1 L1:H1 L2 (verification) [26]: 56

D3H44 heavy chain (Fab format) V190G
H1 L2 of H1 L1:H1 L2 (screen) [4]: 35.3
H1 L2 of H1 L1:H1 L2 (screen) [8]: 24.1
H1 L2 of H1 L1:H1 L2 (verification) [8]: 50.8
H1 L1 of H1 L1:H1 L2 (screen) [5]: 55.1
H1 L1 of H1 L1:H1 L2 (screen) [9]: 78.2
H1 L1 of H1 L1:H1 L2 (verification) [9]: 25.9
